From patent US20260167738A1 (published 2026) come the findings set out here.

One assay addresses CD33ΔE2. Kind of assay: SPR (Biacore). For orientation: In SPR one partner is held on a chip, and binding of the other changes the refractive index at the surface.
The target of assay [1] is full-length human CD33 (CD33^FL) (UniProt P20138 18-364). Description: SPR (Biacore).
full-length human CD33 (CD33^FL), sequence (P20138 18-364): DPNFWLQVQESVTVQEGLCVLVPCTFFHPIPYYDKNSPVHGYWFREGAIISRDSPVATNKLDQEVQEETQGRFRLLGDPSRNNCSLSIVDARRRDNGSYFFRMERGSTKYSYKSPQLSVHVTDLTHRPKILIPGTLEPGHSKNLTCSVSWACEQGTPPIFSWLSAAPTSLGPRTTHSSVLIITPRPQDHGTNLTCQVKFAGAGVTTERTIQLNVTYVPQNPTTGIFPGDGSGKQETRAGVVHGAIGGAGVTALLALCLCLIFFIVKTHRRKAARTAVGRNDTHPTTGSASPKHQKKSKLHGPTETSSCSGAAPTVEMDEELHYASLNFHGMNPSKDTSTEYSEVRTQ

B1: 1H10 (antibody, V domains shown)
VH: QVQLVQSGAEVKKPGASVKVSCKGSGYIFTSYDMHWVRQAPGQGLEWMGIIDPSGGSTSYAQKFQGRVTMTRDTSMSTVYMELSSLRSEDTAVYYCTRDYSWSYFDYWGQGTLVTVSS
VL: AIQMTQSPSSLSASVGDRVTITCRASQGIRIYLGWYQQKPGKAPKLLIYATSSLQSGVPSRFSGSGSGTDFTLTISSLQPEDFATYYCLQDYNYPWTFGQGTKVEIK
Take B1: the affinity with CD33ΔE2, expressed as Kd, was 0.136 nM.

B2: 1H10 antibody (antibody, V domains shown)
VH: B1 VH
VL: B1 VL
As to B2, the Kd – broadly, the free concentration of one partner at which half of the binding sites on the other are occupied at equilibrium, for simple one-to-one binding – in assay [1] was 3.71 nM.

B3: 2D3 antibody (antibody, V domains shown)
VH: EVQLLESGGGLVQPGGSLSLSCAASGFTFSIYAMSWVRQAPGKGLEWVSAISDSGGTTYYADSVKGRFTISRDNSKNMLYLEMNSLRAEDTAIYYCAKRTRYFNGMDVWGQGTTVTVSS
VL: EIVMTQSPATLSLSPGERATLSCRASQSGSSSFLSWYQQKPGQAPRLLIYGASTRATGIPARFSGSGSGTDFTLTISSLQPEDFAVYYCQQDYNLPFTFGPGTKVDIK
Take B3: in assay [1], the affinity, expressed as Kd, was 4.89 nM. This Kd and that of the molecule before are within 1.5-fold of each other.
